Assay results: patent publication US20250003978A1, “DIAGNOSIS AND TREATMENT OF ANTI-PF4 INDUCED THROMBOCYTOPENIA” (The Regents of the University of California, priority 2021, published 2025)
Positions of bridges follow the written chain, without caps; N, C: chain ends. Non-standard residues stand in square brackets, D forms with d. Residues, ends and D or L forms follow the SMILES beside them. hArg = N=C(N)NCCCC[C@H](N)C(=O)O; Mpa = O=C(O)CCS

What was measured:
[1] = target: T1, soluble integrin αIIbβ3 (Homo sapiens, UniProt P05106+P08514); assay: ELISA-type integrin binding assay, soluble αIIbβ3; settings: 1 mM Mn2+
T1 construct: Soluble recombinant αIIbβ3 or αvβ3 (AgroBio, 1 μg/ml); purchased AgroBio
Procedure: (§1) FIG. 2. PF4 specifically binds to soluble αIIbβ3 and αvβ3 in ELISA-type binding assays in 1 mM Mn^2+. FIG. 2a PF4 binds to soluble integrins in 1 mM Mn^2+ in ELISA-type binding assays. PF4 was immobilized to wells of 96-well microtiter plate and incubated with soluble αIIbβ3 or αvβ3 (1 μg/ml) in Tyrode-HEPES buffer with 1 mM Mn^2+ (to activate integrins) for 1 hr at room temperature and bound integrins were quantified using anti-β3 (mAb AV10) and HRP-conjugated anti-mouse IgG. Data are shown as means+/−SD in triplicate experiments. […] FIG. 2b Binding of authentic PF4 (Invitrogen) to integrins. Binding assays were performed as described in (a). PF4 (6.25 μg/ml) was used. Data are shown as means+/−SD in triplicate experiments. […] FIGS. 2c and d The binding of PF4 to integrins was suppressed by the distintegrin domain of ADAM15 fused to GST (ADAM15 disintegrin), but not by control GST. To establish the specificity of PF4 binding to soluble integrins αIIbβ3 (b) and αvβ3 (c), if ADAM15 disintegrin, which is known to bind to integrins αIIbβ3 (22) and αvβ3 (21), suppress the binding. […] Data are shown as means+/−SD in triplicate experiments. […] Bound integrins were quantified as described in (a). […]
(§2) Wells of 96-well microtiter plates were coated with PF4. […] Bound αIIbβ3 or αvβ3 was measured using anti-integrin β3 mAb (AV-10) followed by HRP-conjugated goat anti-mouse IgG and peroxidase substrates.

[2] = target: T2, soluble integrin αvβ3 (Homo sapiens, UniProt P05106+P06756); assay: ELISA-type integrin binding assay, soluble αvβ3; settings: competitor 100 μg/ml; immobilized PF4 (12.5 g/ml); 1 mM Mn2+
T2 construct: Soluble recombinant αIIbβ3 or αvβ3 (AgroBio, 1 μg/ml); purchased AgroBio
T2 sequence (P06756 31-992 limits assumed): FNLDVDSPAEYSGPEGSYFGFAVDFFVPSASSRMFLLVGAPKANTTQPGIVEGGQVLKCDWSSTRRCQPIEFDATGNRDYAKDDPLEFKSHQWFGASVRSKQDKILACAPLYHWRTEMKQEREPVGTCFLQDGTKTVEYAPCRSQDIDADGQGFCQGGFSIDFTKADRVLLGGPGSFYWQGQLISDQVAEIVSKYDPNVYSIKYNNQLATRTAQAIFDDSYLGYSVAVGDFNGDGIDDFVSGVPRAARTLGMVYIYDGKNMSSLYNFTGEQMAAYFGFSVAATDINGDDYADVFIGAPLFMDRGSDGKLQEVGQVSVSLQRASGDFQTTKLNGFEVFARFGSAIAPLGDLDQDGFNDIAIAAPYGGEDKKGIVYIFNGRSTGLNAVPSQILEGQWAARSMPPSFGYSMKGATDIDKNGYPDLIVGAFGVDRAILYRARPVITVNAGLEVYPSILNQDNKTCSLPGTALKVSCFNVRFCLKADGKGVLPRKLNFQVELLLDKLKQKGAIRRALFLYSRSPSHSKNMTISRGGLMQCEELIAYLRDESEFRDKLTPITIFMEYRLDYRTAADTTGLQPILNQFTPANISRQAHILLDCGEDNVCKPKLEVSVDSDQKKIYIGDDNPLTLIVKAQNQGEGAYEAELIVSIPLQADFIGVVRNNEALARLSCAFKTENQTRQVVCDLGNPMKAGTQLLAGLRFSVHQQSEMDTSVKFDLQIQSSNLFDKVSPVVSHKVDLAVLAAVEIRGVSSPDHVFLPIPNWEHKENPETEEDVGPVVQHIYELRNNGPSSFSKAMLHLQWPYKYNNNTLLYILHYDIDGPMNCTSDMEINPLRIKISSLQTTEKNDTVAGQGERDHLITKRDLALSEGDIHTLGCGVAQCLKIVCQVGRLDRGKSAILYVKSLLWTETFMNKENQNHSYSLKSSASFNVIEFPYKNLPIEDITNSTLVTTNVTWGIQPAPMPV
T2 sequence (P05106 27-718 limits assumed): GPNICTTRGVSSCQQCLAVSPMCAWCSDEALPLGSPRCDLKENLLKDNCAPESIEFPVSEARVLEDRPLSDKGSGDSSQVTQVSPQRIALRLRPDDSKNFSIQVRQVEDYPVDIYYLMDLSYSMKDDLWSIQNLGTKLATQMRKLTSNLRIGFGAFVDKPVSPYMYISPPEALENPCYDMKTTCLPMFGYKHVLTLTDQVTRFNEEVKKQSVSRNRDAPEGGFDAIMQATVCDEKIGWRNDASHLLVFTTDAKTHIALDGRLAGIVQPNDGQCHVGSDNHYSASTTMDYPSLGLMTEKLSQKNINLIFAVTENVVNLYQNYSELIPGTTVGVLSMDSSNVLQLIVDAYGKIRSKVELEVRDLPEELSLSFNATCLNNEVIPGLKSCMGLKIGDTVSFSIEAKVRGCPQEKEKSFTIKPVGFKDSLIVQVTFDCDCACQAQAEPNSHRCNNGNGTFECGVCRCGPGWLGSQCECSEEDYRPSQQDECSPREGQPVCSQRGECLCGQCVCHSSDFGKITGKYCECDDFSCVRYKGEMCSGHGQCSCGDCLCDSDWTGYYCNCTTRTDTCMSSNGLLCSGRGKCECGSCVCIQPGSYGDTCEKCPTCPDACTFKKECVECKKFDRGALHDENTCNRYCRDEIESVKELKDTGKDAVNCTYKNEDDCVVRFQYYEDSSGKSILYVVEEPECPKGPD
Procedure: as §1, §2

[3] = target: T3, soluble recombinant integrin αvβ3 (UniProt P06756 31-992; P05106 27-718); assay: ELISA-type binding: immobilized PF4, soluble αvβ3 1 µg/ml, 1 mM Mn2+, detection with anti-β3 mAb AV10
T3 construct: Bought soluble heterodimer, used at 1 µg/ml; also called soluble αvβ3
T3 sequence (P06756 31-992, chain 1 of 2): as the sequence (P06756 31-992 limits assumed) above
T3 sequence (P05106 27-718, chain 2 of 2): as the sequence (P05106 27-718 limits assumed) above
Procedure: (§4) Data are shown as means+/−SD in triplicate experiments. […] Binding assays were performed as described in (a). […] Data are shown as means+/−SD in triplicate experiments. […] Data are shown as means+/−SD in triplicate experiments. […] Assays were performed as described in (a). Data is shown as means+/−SD in triplicate experiments. […] Wells were incubated with soluble integrins (1 μg/ml) in Tyrode-HEPES buffer with different cations (1 mM). Bound integrins were quantified as described in (a). Data are shown as means+/−SD in triplicate experiments.

[4] = target: T4, soluble recombinant integrin αIIbβ3 (UniProt P08514 32-993; P05106 27-718); assay: ELISA-type binding: immobilized PF4, soluble αIIbβ3 1 µg/ml, 1 mM Mn2+, detection with anti-β3 mAb AV10
T4 construct: Bought soluble heterodimer, used at 1 µg/ml; also called soluble αIIbβ3
Procedure: as §4

[5] = target: T1, soluble integrin αIIbβ3; assay: ELISA-type integrin activation assay, soluble αIIbβ3 binding to immobilized γC390-411; format: biochemical; settings: for ability of PF4 mutant to mediate RTO/PF4-induced αIIbβ3 activation: PF4 mutant in complex with anti-PF4 RTO, 1 mM Ca2+
Procedure: FIG. 3. […] FIG. 3a. Anti-PF4 (RTO) markedly enhances PF4-induced activation of soluble αIIbβ3 in 1 mM Ca^2+ in ELISA-type activation assays in a dose-dependent manner at physiological concentrations of PF4 (below 1 μg/ml). The fibrinogen fragments γC390-411 (a specific ligand for αIIbβ3) was immobilized to wells of 96-well microtiter plate. […] Anti-PF4 (RTO or KKO, 10 μg/ml) were added (without heparin). After washing, bound integrins were quantified using anti-β3 (mAb AV10) and HRP-conjugated anti-mouse IgG. Mouse IgG (10 μg/ml) and no antibody were used as negative controls. Data are shown as means+/−SD in triplicate experiments. FIG. 3b. […] Commercial PF4 was used instead of our own PF4 preparation. Activation assays were performed as described in a. […] FIG. 3c. Point mutations in the predicted integrin-binding site (site 2) of PF4 suppressed activation of αIIbβ3 by the anti-PF4/PF4 complex. […] FIG. 3d. The R20E/R22E/K46E/R49E mutant suppressed integrin activation by the anti-PF4/PF4 complex. WT PF4 ([…]) and excess PF4 mutant (5 or 10 μg/ml) were used.
(§3) Wells of 96-well microtiter plates were coated with γC390-411 (a specific ligand for αIIbβ3) or γC399tr (a specific ligand for αvβ3). Remaining protein binding sites were blocked with BSA. Soluble recombinant αIIbβ3 or αvβ3 (AgroBio, 1 μg/ml) was pre-incubated with chemokines PF4 or anti-PF4/PF4 for 10 min at room temperature and was added to the wells and incubated in HEPES-Tyrodes buffer with 1 mM CaCl2 for 1 h at room temperature. After unbound αIIbβ3 or αvβ3 was removed by rinsing the wells with binding buffer, bound αIIbβ3 or αvβ3 was measured using anti-integrin B3 mAb (AV-10) followed by HRP-conjugated goat anti-mouse IgG and peroxidase substrates.

[6] = target: T2, soluble integrin αvβ3; assay: ELISA-type integrin activation assay, soluble αvβ3 binding to immobilized γC399tr; format: biochemical; settings: for ability of PF4 mutant to mediate RTO/PF4-induced αvβ3 activation: PF4 mutant in complex with anti-PF4 RTO, 1 mM Ca2+
Procedure: FIG. 4. […] FIG. 4a. Anti-PF4 (RTO) markedly enhances PF4-induced activation of soluble αvβ3 in 1 mM Ca^2+ in ELISA-type activation assays. Fibrinogen fragment γC399tr (151-399 segment of fibrinogen γ chain, a specific ligand for αvβ3) was immobilized to wells of 96-well microtiter plate. […] Anti-PF4 (RTO or KKO, 10 μg/ml) were added (without heparin). After washing, bound integrins were quantified using anti-β3 (mAb AV10) and HRP-conjugated anti-mouse IgG. Mouse IgG (10 μg/ml) and no antibody were used as negative controls. […] FIG. 4b. […] Commercial PF4 was used instead of our own PF4 preparation. Activation assays were performed as described in a. […] FIG. 4c. Point mutations in the predicted integrin-binding site (site 2) of PF4 suppressed activation of αvβ3 by the anti-PF4/PF4 complex. […] FIG. 4d. The R20E/R22E/K46E/R49E mutant suppressed integrin activation by the RTO/PF4 complex. WT PF4 (0.5 μg/ml) and excess PF4 mutant (5 or 10 μg/ml) were used.
as §3

With N=C(N)NCCCC[C@@H]1NC(=O)CCSSC[C@@H](C(N)=O)NC(=O)[C@@H]2CCCN2C(=O)[C@H](Cc2c[nH]c3ccccc23)NC(=O)[C@H](CC(=O)O)NC(=O)CNC1=O [eptifibatide] ([Mpa][hArg]GDWPC-NH2; disulfide 1-7) the “effect of integrin antagonists on PF4 binding to αIIbβ3” value ([1]; PF4 coated at 50 μg/ml, mAb 7E3 10 μg/ml, eptifibatide 0.65 μg/ml, cyclic RGDfV 10 μM) was “weak inhibition”.

“ADAM15 disintegrin: disintegrin domain of ADAM15 fused to GST, known to bind integrins αIIbβ3 and αvβ3” was tested, and the “suppression of αIIbβ3 binding to immobilized PF4” value ([1]; competitor 100 μg/ml, immobilized PF4 (12.5 g/ml)) was “suppressed” and the “suppression of αvβ3 binding to immobilized PF4” value [2] was “suppressed”.

B1: PF4 (platelet factor 4, chemokine CXCL4), preparation generated in the inventors' lab (ligand)
chain: EAEEDGDLQCLCVKTTSQVRPRHITSLEVIKAGPHCPTAQLIATLKNGRKICLDLQAPLYKKIIKKLLES
notes: Made in E. coli BL21 from pET28a as inclusion bodies, purified on Ni-NTA under denaturing conditions and renatured; also called WT PF4; wild-type PF4; not shown: Vector-derived N-terminal tag and leader of pET28a (His tag used for Ni-NTA purification, BamHI/EcoRI insert)
For B1, the Kd [3] was < 1 µg/mL and the Kd [4] was < 1 µg/mL.

B2: K46E/R49E: PF4 (SEQ ID NO: 1) double mutant, Lys46 and Arg49 mutated to Glu (protein)
chain: EAEEDGDLQCLCVKTTSQVRPRHITSLEVIKAGPHCPTAQLIATLENGEKICLDLQAPLYKKIIKKLLES
modifications: Description ofsequence: PF4 sp|P02776|32-101
For B2, the “ability of PF4 mutant to mediate RTO/PF4-induced αIIbβ3 activation” value [5] was “reduced ability” and the “ability of PF4 mutant to mediate RTO/PF4-induced αvβ3 activation” value [6] was “reduced ability”.

B3: R20E/R22E: PF4 (SEQ ID NO: 1) double mutant, Arg20 and Arg22 mutated to Glu (protein)
chain: EAEEDGDLQCLCVKTTSQVEPEHITSLEVIKAGPHCPTAQLIATLKNGRKICLDLQAPLYKKIIKKLLES
modifications: Description ofsequence: PF4 sp|P02776|32-101
B3 was tested, and the “ability of PF4 mutant to mediate RTO/PF4-induced αIIbβ3 activation” value [5] was “reduced ability” and the “ability of PF4 mutant to mediate RTO/PF4-induced αvβ3 activation” value [6] was “reduced ability”.

B4: R20E/R22E/K46E/R49E: PF4 (SEQ ID NO: 1) quadruple mutant defective in site 2 binding; dominant-negative antagonist (protein)
chain: EAEEDGDLQCLCVKTTSQVEPEHITSLEVIKAGPHCPTAQLIATLENGEKICLDLQAPLYKKIIKKLLES
modifications: Description ofsequence: PF4 sp|P02776|32-101
notes: dominant-negative antagonist
For B4, the “ability of PF4 mutant to mediate RTO/PF4-induced αIIbβ3 activation” value [5] was “most effectively reduced”, the “suppression of αIIbβ3 activation by the anti-PF4/PF4 complex (antagonist effect)” value ([5]; WT PF4 (0.5 g/ml) and excess PF4 mutant (5 or 10 μg/ml), RTO) was “suppressed” and the “ability of PF4 mutant to mediate RTO/PF4-induced αvβ3 activation” value [6] was “most effectively reduced”. For the same molecule, the “suppression of αvβ3 activation by the RTO/PF4 complex (antagonist effect)” value ([6]; WT PF4 (0.5 μg/ml) and excess PF4 mutant (5 or 10 μg/ml), RTO) was “suppressed”.
